Reference: the supplement of paper PMC9112550, “Optimization of the antimicrobial peptide Bac7 by deep mutational scanning” (BMC Biology, 2022)

System: Escherichia coli TOP10
Assay: shrunken log2 fold change of peptide-encoding DNA abundance (4.5 h post-induction vs induction); higher = less antimicrobial activity (less host growth inhibition)
Settings: time post-induction: 4.5 h; library: site-saturation at positions 5, 18, 19, 20
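Also: peptides expressed intracellularly from a pBAD plasmid library in pooled LB shake-flask culture, induced with 0.3% L-arabinose, DNA abundance read by NGS, three biological replicates, DESeq2 with apeglm shrinkage.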

Row | Sequence | shrunken log2 fold change
1 | RRIRPRPPRLPRPRPRPSPSPRP | 0.132
2 | RRIRPRPPRLPRPRPRPSQIPRP | -0.112
3 | RRIRPRPPRLPRPRPRPSQRPRP | 0.229
4 | RRIRPRPPRLPRPRPRPSSLPRP | 0.0404
5 | RRIRPRPPRLPRPRPRPSVHPRP | -0.289
6 | RRIRPRPPRLPRPRPRPSWCPRP | 0.108
7 | RRIRPRPPRLPRPRPRPSWKPRP | 0.105
8 | RRIRPRPPRLPRPRPRPSWVPRP | 0.0466
9 | RRIRPRPPRLPRPRPRPTAQPRP | 0.357
10 | RRIRPRPPRLPRPRPRPTASPRP | 0.259
11 | RRIRPRPPRLPRPRPRPTDLPRP | -0.0166
12 | RRIRPRPPRLPRPRPRPTDVPRP | 0.35
13 | RRIRPRPPRLPRPRPRPTELPRP | -0.126
14 | RRIRPRPPRLPRPRPRPTENPRP | 0.138
15 | RRIRPRPPRLPRPRPRPTFNPRP | -0.155
16 | RRIRPRPPRLPRPRPRPTFRPRP | 0.0885
17 | RRIRPRPPRLPRPRPRPTGCPRP | 0.0367
18 | RRIRPRPPRLPRPRPRPTGPPRP | 0.212
19 | RRIRPRPPRLPRPRPRPTGVPRP | 0.0313
20 | RRIRPRPPRLPRPRPRPTHKPRP | 0.283
21 | RRIRPRPPRLPRPRPRPTHNPRP | 0.199
22 | RRIRPRPPRLPRPRPRPTIDPRP | -0.454
23 | RRIRPRPPRLPRPRPRPTIKPRP | -0.313
24 | RRIRPRPPRLPRPRPRPTIVPRP | 0.121
25 | RRIRPRPPRLPRPRPRPTKAPRP | -0.191

Row | Sequence | shrunken log2 fold change
26 | RRIRPRPPRLPRPRPRPTKYPRP | -0.344
27 | RRIRPRPPRLPRPRPRPTLNPRP | 0.0863
28 | RRIRPRPPRLPRPRPRPTMNPRP | -0.0529
29 | RRIRPRPPRLPRPRPRPTYFPRP | -0.179
30 | RRIRPRPPRLPRPRPRPVAEPRP | 0.394
31 | RRIRPRPPRLPRPRPRPVCLPRP | 0.081
32 | RRIRPRPPRLPRPRPRPVDKPRP | -0.153
33 | RRIRPRPPRLPRPRPRPVFCPRP | -0.113
34 | RRIRPRPPRLPRPRPRPVFKPRP | -0.189
35 | RRIRPRPPRLPRPRPRPVHSPRP | 0.127
36 | RRIRPRPPRLPRPRPRPVINPRP | -0.626
37 | RRIRPRPPRLPRPRPRPVLPPRP | 0.11
38 | RRIRPRPPRLPRPRPRPVMPPRP | 0.188
39 | RRIRPRPPRLPRPRPRPVRHPRP | 0.119
40 | RRIRPRPPRLPRPRPRPVRYPRP | 0.346
41 | RRIRPRPPRLPRPRPRPVSHPRP | 0.208
42 | RRIRPRPPRLPRPRPRPVSMPRP | 1.41
43 | RRIRPRPPRLPRPRPRPVTFPRP | -0.186
44 | RRIRPRPPRLPRPRPRPVTQPRP | 0.2
45 | RRIRPRPPRLPRPRPRPVTWPRP | -0.0661
46 | RRIRPRPPRLPRPRPRPVVIPRP | -0.191
47 | RRIRPRPPRLPRPRPRPVVSPRP | -0.0387
48 | RRIRPRPPRLPRPRPRPVWEPRP | -0.126
49 | RRIRPRPPRLPRPRPRPVYGPRP | -0.486
50 | RRIRPRPPRLPRPRPRPVYMPRP | -1.1

Row | Sequence | shrunken log2 fold change
51 | RRIRPRPPRLPRPRPRPVYWPRP | -0.139
52 | RRIRPRPPRLPRPRPRPWARPRP | 0.0379
53 | RRIRPRPPRLPRPRPRPWASPRP | 0.0361
54 | RRIRPRPPRLPRPRPRPWDRPRP | 0.0969
55 | RRIRPRPPRLPRPRPRPWDVPRP | 0.308
56 | RRIRPRPPRLPRPRPRPWEDPRP | 0.00408
57 | RRIRPRPPRLPRPRPRPWERPRP | 0.0097
58 | RRIRPRPPRLPRPRPRPWFSPRP | -0.255
59 | RRIRPRPPRLPRPRPRPWFTPRP | -0.0465
60 | RRIRPRPPRLPRPRPRPWGLPRP | 0.253
61 | RRIRPRPPRLPRPRPRPWHDPRP | -0.112
62 | RRIRPRPPRLPRPRPRPWIWPRP | -0.186
63 | RRIRPRPPRLPRPRPRPWKQPRP | 0.0524
64 | RRIRPRPPRLPRPRPRPWKVPRP | -0.0967
65 | RRIRPRPPRLPRPRPRPWNEPRP | -0.138
66 | RRIRPRPPRLPRPRPRPWPAPRP | 0.0589
67 | RRIRPRPPRLPRPRPRPWPFPRP | 0.108
68 | RRIRPRPPRLPRPRPRPWPIPRP | 0.054
69 | RRIRPRPPRLPRPRPRPWQNPRP | -0.136
70 | RRIRPRPPRLPRPRPRPWQRPRP | -0.0107
71 | RRIRPRPPRLPRPRPRPWTEPRP | -0.204
72 | RRIRPRPPRLPRPRPRPWTYPRP | -0.0785
73 | RRIRPRPPRLPRPRPRPWWPPRP | 0.165
74 | RRIRPRPPRLPRPRPRPWWSPRP | 0.361
75 | RRIRPRPPRLPRPRPRPYAPPRP | -0.207

Row | Sequence | shrunken log2 fold change
76 | RRIRPRPPRLPRPRPRPYAQPRP | -0.478
77 | RRIRPRPPRLPRPRPRPYCFPRP | -0.655
78 | RRIRPRPPRLPRPRPRPYCRPRP | 0.0122
79 | RRIRPRPPRLPRPRPRPYGAPRP | -0.306
80 | RRIRPRPPRLPRPRPRPYHGPRP | 0.0397
81 | RRIRPRPPRLPRPRPRPYIWPRP | -0.267
82 | RRIRPRPPRLPRPRPRPYKNPRP | -0.775
83 | RRIRPRPPRLPRPRPRPYLCPRP | -0.504
84 | RRIRPRPPRLPRPRPRPYLVPRP | -0.203
85 | RRIRPRPPRLPRPRPRPYPYPRP | -0.124
86 | RRIRPRPPRLPRPRPRPYQHPRP | -0.592
87 | RRIRPRPPRLPRPRPRPYQPPRP | -0.125
88 | RRIRPRPPRLPRPRPRPYSIPRP | -0.0708
89 | RRIRPRPPRLPRPRPRPYSMPRP | -1.43
90 | RRIRPRPPRLPRPRPRPYTGPRP | -0.6
91 | RRIRPRPPRLPRPRPRPYVWPRP | -0.365
92 | RRIRPRPPRLPRPRPRPYWCPRP | -0.272
93 | RRIRPRPPRLPRPRPRPYWPPRP | -0.143
94 | RRIRPRPPRLPRPRPRPYYGPRP | -0.271
95 | RRIRPRPPRLPRPRPRPYYSPRP | -0.246
96 | RRIRQRPPRLPRPRPRPACDPRP | 0.0239
97 | RRIRQRPPRLPRPRPRPACKPRP | -0.0465
98 | RRIRQRPPRLPRPRPRPACPPRP | 0.0154
99 | RRIRQRPPRLPRPRPRPACYPRP | -0.18
100 | RRIRQRPPRLPRPRPRPADNPRP | -0.536

Row | Sequence | shrunken log2 fold change
101 | RRIRQRPPRLPRPRPRPAFRPRP | 0.204
102 | RRIRQRPPRLPRPRPRPAFWPRP | 0.382
103 | RRIRQRPPRLPRPRPRPAGLPRP | -0.158
104 | RRIRQRPPRLPRPRPRPAIDPRP | 0.0942
105 | RRIRQRPPRLPRPRPRPAKMPRP | -0.207
106 | RRIRQRPPRLPRPRPRPALAPRP | 0.73
107 | RRIRQRPPRLPRPRPRPALQPRP | 0.145
108 | RRIRQRPPRLPRPRPRPAMMPRP | 0.00621
109 | RRIRQRPPRLPRPRPRPAMNPRP | -0.115
110 | RRIRQRPPRLPRPRPRPANFPRP | 0.0982
111 | RRIRQRPPRLPRPRPRPANHPRP | -0.728
112 | RRIRQRPPRLPRPRPRPAPHPRP | 0.343
113 | RRIRQRPPRLPRPRPRPAQMPRP | -0.15
114 | RRIRQRPPRLPRPRPRPARCPRP | 0.174
115 | RRIRQRPPRLPRPRPRPARFPRP | 0.0469
116 | RRIRQRPPRLPRPRPRPASGPRP | -0.00438
117 | RRIRQRPPRLPRPRPRPAWIPRP | -0.0396
118 | RRIRQRPPRLPRPRPRPAWPPRP | 0.303
119 | RRIRQRPPRLPRPRPRPAYEPRP | -0.00926
120 | RRIRQRPPRLPRPRPRPAYKPRP | -0.534
121 | RRIRQRPPRLPRPRPRPCDLPRP | -0.265
122 | RRIRQRPPRLPRPRPRPCDMPRP | -0.129
123 | RRIRQRPPRLPRPRPRPCDYPRP | 0.07
124 | RRIRQRPPRLPRPRPRPCFAPRP | 0.0874
125 | RRIRQRPPRLPRPRPRPCFIPRP | -0.353

Row | Sequence | shrunken log2 fold change
126 | RRIRQRPPRLPRPRPRPCGYPRP | -0.0698
127 | RRIRQRPPRLPRPRPRPCHIPRP | -0.0316
128 | RRIRQRPPRLPRPRPRPCHRPRP | 0.0197
129 | RRIRQRPPRLPRPRPRPCHYPRP | -0.000921
130 | RRIRQRPPRLPRPRPRPCLFPRP | -0.268
131 | RRIRQRPPRLPRPRPRPCLPPRP | -0.186
132 | RRIRQRPPRLPRPRPRPCMTPRP | 0.0109
133 | RRIRQRPPRLPRPRPRPCMWPRP | -0.148
134 | RRIRQRPPRLPRPRPRPCPAPRP | -0.00924
135 | RRIRQRPPRLPRPRPRPCPKPRP | 4.03
136 | RRIRQRPPRLPRPRPRPCPLPRP | -0.0641
137 | RRIRQRPPRLPRPRPRPCPQPRP | -0.153
138 | RRIRQRPPRLPRPRPRPCPTPRP | -0.13
139 | RRIRQRPPRLPRPRPRPCRCPRP | -0.0134
140 | RRIRQRPPRLPRPRPRPCRKPRP | 0.0642
141 | RRIRQRPPRLPRPRPRPCTFPRP | -0.121
142 | RRIRQRPPRLPRPRPRPCWWPRP | 0.0676
143 | RRIRQRPPRLPRPRPRPCYKPRP | -0.271
144 | RRIRQRPPRLPRPRPRPDAIPRP | 0.0472
145 | RRIRQRPPRLPRPRPRPDCVPRP | -0.0384
146 | RRIRQRPPRLPRPRPRPDERPRP | -0.00664
147 | RRIRQRPPRLPRPRPRPDEYPRP | 0.0131
148 | RRIRQRPPRLPRPRPRPDFQPRP | -0.0253
149 | RRIRQRPPRLPRPRPRPDGAPRP | 0.0271
150 | RRIRQRPPRLPRPRPRPDGIPRP | 0.087
